Blank lines part the entries; values can stand above or below the molecule they belong to.
Columns and labels:
[1] = biological target: T1, Fas-Fc / Fas ligand binding (Mus musculus, UniProt P25446); assay: Competition ELISA: coated Fas ligand, Fas-Fc added with increasing amounts of polypeptide; details: Fas ligand 1 μg/ml coated, Fas-Fc 1 μg/ml
T1 construct: purchased R&D
T1 sequence (P25446 22-169 limits assumed): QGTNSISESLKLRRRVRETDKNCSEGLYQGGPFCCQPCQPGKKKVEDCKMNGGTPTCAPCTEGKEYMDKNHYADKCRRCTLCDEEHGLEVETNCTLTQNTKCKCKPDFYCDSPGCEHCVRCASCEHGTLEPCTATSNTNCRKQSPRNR
Description: This antibody also recognizes Fas-Fc which is also tagged at the C-terminus by His. In FIG. 2b, a fixed amount of purified recombinant Fas-ligand was added to Fas-Fc in the absence or presence of increasing amounts of AlphaMet as indicated. Samples were subjected to pull down using proteinA agarose followed by Western blot using a polyclonal rabbit anti-FasL antibody. […] Fas ligand (1 μg/ml) was coated in the wells of a microtiter plate (triplicate wells) then 1 μg/ml of Fas-Fc was added in the absence or presence of an increasing amount of the indicated polypeptide. A 13 mer YLGA polypeptide derived from FasL also was synthesized and used. The control peptide was a scrambled 13 mer. Anti human IgM-HRP conjugates were used to detect the bound Fas-Fc. […] One-way ANOVA was carried out for determination of statistical significance. […] Cells (3×10^5) were plated in 24-well plates having Poly-L-Lysine pre-treated cover glass. 2 μg/ml of Fas ligand was added and the cells were incubated for 30 min on ice. Cells were then washed by PBS twice, and were subjected to immunostaining using anti-Fas ligand antibody and fluorescent microscopy. In Frame A, Fas ligand was not added, in B, only Fas ligand was added, in C-F, Fas ligand was added with different polypeptides as follows: AlphaMet, 12 mer YLGA, control peptide, and YLGA mutated AlphaMet, respectively.
(§1) ELISA. Synthesized polypeptides (Genemed Synthesis, Inc. South San Francisco, Calif.) were dissolved in water and diluted in the coating buffer (0.05M of Sodium Carbonate, 0.02% of Sodium Azide, pH 9.6) to a final concentration of 1 ug/ml. One hundred microliter aliquots were added to coat each well of a 96-well microtitre plate. The coated plates were then washed with PBS-Tween (0.5%) three times. The plates were blotted and dried by tapping upside down on tissue paper. They were blocked using 200 μl of 1% of BSA in PBS solution followed by a 2 hour incubation. Plates were washed another three times, Fas-Fc was added, and the plates were incubated for another 2 hours. The plates were washed three times and anti-human IgM Fc HRP conjugates were included at a final concentration of 1:20,000, and incubated for 1 hour. Plates were washed three times again and ready-to-use TMD was added and incubated for 30 minutes. The color reaction was stopped by 2M of Sulfuric Acid. Plates were applied to color read at a wave length of 450 nm.

[2] = biological target: T2, Fas-Fc (Mus musculus, UniProt P25446); assay: ELISA of Fas-Fc binding to coated synthetic polypeptides; details: peptides coated at 1 μg/ml, increasing Fas-Fc, OD 450 nm
T2 construct: purchased R&D
T2 sequence (P25446 22-169 limits assumed): T1 sequence (P25446 22-169 limits assumed)
Excerpt: The Met alpha but not beta chain binds to Fas (FIG. 1a). Various regions of the mouse Met cDNA corresponding to the alpha chain or the extra-cellular portion of the Met beta chain were cloned into expression vectors (pCRT7 TOPO/AlphaMet or pCRT7 TOPO/beta chain) and subjected to in vitro transcription/translation by a rabbit reticolucyte lysate translation system. Empty vector was included in each experiment as a control. The expressed proteins were labeled with ^35S-Methionine. Pull down assays were performed using Fas-Fc, a chimeric molecule which lacks the interacellular cytoplasmic domain and protein-A agarose as described in Wang et al., 2002. FIG. 1b is a schematic presentation of the Met alpha chain and its mutant version used to map the region interacting with Fas. The C-terminus of each construct contains a hexa-Histidine tag for ease of detection. Start cordon ATG was added to the N-terminally truncated constructs. The YLGA (SEQ ID NO:1) motif mutation was prepared by PCR, in which YLGA (SEQ ID NO:1) was replaced by DHER (SEQ ID NO:24). […] In vitro translated ^35S-methionine labeled truncated/mutated AlphaMet proteins were pulled down with 2 μg of Fas-Fc or the same amount of IgG. Lane 1: 10% of AlphaMet input; Lane 2: AlphaMet with IgG control; Lanes 3 to 8: pull down of various truncated AlphaMet proteins; N-terminal 1-106 residues; C-terminal truncated, residues 1-210; alpha chain, residues 1-306; alpha chain with transmembrane domain, 1-338; N-terminally truncated alpha chain, residues 100-306; and N-terminally truncated with addition of the transmembrane domain 100-338, respectively. FIG. 1d depicts the amino acid sequence alignment of alpha chain with FasL, determined using the CLUSTALW, SIM+LALNVIEW, and ALIGN at ExPASy Proteomic Tools (available on the internet at us.expresly.org/tools). The numbers indicate the amino acid residues of the indicated protein. […] Recombinant His-tagged AlphaMet or its mutant version were expressed in E. coli, purified with chromatography, and subjected to Fas-Fc (lanes labeled Fas) or control IgG pull down experiments, and detected by Western blot using anti-His antibody that recognizes C-terminal His. This antibody also recognizes the Fas-Fc which is also tagged at the C-terminus by His. […] Purified recombinant AlphaMet protein (approximately 10 μg) was mixed with Hepa 1-6 cells or Jurkat cell lysates and subjected to immunoprecicitation using anti-Fas antibody or control IgG followed by Western blot using anti His-tag antibody as a probe. […] Peptides (1 μg/ml) were coated into the 96-well microtiter plates in triplicate and after blocking with 1% BSA, increasing amounts of Fas-Fc were added as indicated. The control peptide was a scrambled 13 mer. After washing the wells, anti-human […]-HRP conjugates (1:20,000) were added to detect the bound Fas-Fc using TMD dye and the OD value was determined at a wavelength of 450 nm. One-way ANOVA was carried out for determination of statistical significance.
as §1, with “Plates were applied to color read at a wave length of 450 nm.” left out

[3] = biological target: CFP-tagged and YFP-tagged Fas expressed in Hepa 1-6 cells; assay: cell-based or functional assay
[4] = biological target: T3, Fas-Fc (extracellular part of Fas) (Mus musculus, UniProt P25446); assay: Fas-Fc pull down assay with protein-A agarose; type: binding; details: in vitro translated 35S-labeled proteins, autoradiography
T3 construct: purchased R&D
T3 sequence (P25446 22-169 limits assumed): T1 sequence (P25446 22-169 limits assumed)
Excerpt: The Met alpha but not beta chain binds to Fas (FIG. 1a). Various regions of the mouse Met cDNA corresponding to the alpha chain or the extra-cellular portion of the Met beta chain were cloned into expression vectors (pCRT7 TOPO/AlphaMet or pCRT7 TOPO/beta chain) and subjected to in vitro transcription/translation by a rabbit reticolucyte lysate translation system. Empty vector was included in each experiment as a control. The expressed proteins were labeled with ^35S-Methionine. Pull down assays were performed using Fas-Fc, a chimeric molecule which lacks the interacellular cytoplasmic domain and protein-A agarose as described in Wang et al., 2002. FIG. 1b is a schematic presentation of the Met alpha chain and its mutant version used to map the region interacting with Fas. The C-terminus of each construct contains a hexa-Histidine tag for ease of detection. Start cordon ATG was added to the N-terminally truncated constructs. The YLGA (SEQ ID NO:1) motif mutation was prepared by PCR, in which YLGA (SEQ ID NO:1) was replaced by DHER (SEQ ID NO:24). […] In vitro translated ^35S-methionine labeled truncated/mutated AlphaMet proteins were pulled down with 2 μg of Fas-Fc or the same amount of IgG. Lane 1: 10% of AlphaMet input; Lane 2: AlphaMet with IgG control; Lanes 3 to 8: pull down of various truncated AlphaMet proteins; N-terminal 1-106 residues; C-terminal truncated, residues 1-210; alpha chain, residues 1-306; alpha chain with transmembrane domain, 1-338; N-terminally truncated alpha chain, residues 100-306; and N-terminally truncated with addition of the transmembrane domain 100-338, respectively. FIG. 1d depicts the amino acid sequence alignment of alpha chain with FasL, determined using the CLUSTALW, SIM+LALNVIEW, and ALIGN at ExPASy Proteomic Tools (available on the internet at us.expresly.org/tools). The numbers indicate the amino acid residues of the indicated protein. […] Recombinant His-tagged AlphaMet or its mutant version were expressed in E. coli, purified with chromatography, and subjected to Fas-Fc (lanes labeled Fas) or control IgG pull down experiments, and detected by Western blot using anti-His antibody that recognizes C-terminal His. This antibody also recognizes the Fas-Fc which is also tagged at the C-terminus by His. […] Purified recombinant AlphaMet protein (approximately 10 μg) was mixed with Hepa 1-6 cells or Jurkat cell lysates and subjected to immunoprecicitation using anti-Fas antibody or control IgG followed by Western blot using anti His-tag antibody as a probe. […] After washing the wells, anti-human […]-HRP conjugates (1:20,000) were added to detect the bound Fas-Fc using TMD dye and the OD value was determined at a wavelength of 450 nm. […]

- inhibition of FasL binding to Fas-Fc (ELISA) [1]: significantly inhibited FasL binding
- Fas binding by ELISA [2]: bound Fas strongly
Molecule: AHSSYLGAVFNLT [YLGA-13 mer]

Molecule: FLGA [FLGA tetramer]
- Fas binding by ELISA [2]: identical binding activity to that of the YLGA tetramer

- inhibition of FasL binding to Fas-Fc (ELISA) [1]: inhibiting FasL binding to Fas
- Fas binding by ELISA [2]: very active in binding to Fas
Molecule: FLGAV

- inhibition of FasL binding to Fas-Fc (ELISA) [1]: significantly inhibited FasL binding
- Fas binding by ELISA [2]: bound Fas strongly
Molecule: FTAETPIQNVVLHGHHIYLGATNYIYVLNDKDLQKV [36 mer]

- inhibition of FasL binding to Fas-Fc (ELISA) [1]: significantly inhibited FasL binding
- Fas binding by ELISA [2]: strong Fas-binding activity
Molecule: HHIFLGATNYIY

- percent of fluorescent cells showing Fas capping [3]: 30%
Molecule: Jo2, monoclonal anti-Fas antibody

Molecule: RLGA
- Fas binding by ELISA [2]: completely lost their Fas binding capacity

- inhibition of FasL binding to Fas-Fc (ELISA) [1]: significantly inhibited FasL binding
- Fas binding by ELISA [2]: strong Fas-binding activity
Molecule: TGHIYLGAVNRIY [13-mer derived from PlexinA4]

Molecule: YLRA
- Fas binding by ELISA [2]: completely lost their Fas binding capacity

Molecule: YRGA
- Fas binding by ELISA [2]: completely lost their Fas binding capacity

B1: Met beta chain: extracellular region of Met beta chain (amino acids 308 to 968, with transmembrane portion) (protein)
chain: TREEVFNILQAAYVSKPGANLAKQIGASPSDDILFGVFAQSKPDSAEPVNRSAVCAFPIKYVNDFFNKIVNKNNVRCLQHFYGPNHEHCFNRTLLRNSSGCEARSDEYRTEFTTALQRVDLFMGRLNQVLLTSISTFIKGDLTIANLGTSEGRFMQVVLSRTAHLTPHVNFLLDSHPVSPEVIVEHPSNQNGYTLVVTGKKITKIPLNGLGCGHFQSCSQCLSAPYFIQCGWCHNQCVRFDECPSGTWTQEICLPAVYKVFPTSAPLEGGTVLTICGWDFGFRKNNKFDLRKTKVLLGNESCTLTLSESTTNTLKCTVGPAMSEHFNVSVIISNSRETTQYSAFSYVDPVITSISPRYGPQAGGTLLTLTGKYLNSGNSRHISIGGKTCTLKSVSDSILECYTPAQTTSDEFPVKLKIDLANRETSSFSYREDPVVYEIHPTKSFISGGSTITGIGKTLNSVSLPKLVIDVHEVGVNYTVACQHRSNSEIICCTTPSLKQLGLQLPLKTKAFFLLDGILSKHFDLTYVHNPVFEPFEKPVMISMGNENVVEIKGNNIDPEAVKGEVLKVGNQSCESLHWHSGAVLCTVPSDLLKLNSELNIEWKQAVSSTVLGKVIVQPDQNFAGLIIGAVSISVVVLLLSGLFLWMRKRKHKDLGSELVR
- Fas binding in Fas-Fc pull down [4]: not the Met beta chain region bound specifically
